Tests used:
[1] = target: surfactant protein A (SP-A) in human broncho-alveolar lavage fluid (human (endogenous in BAL fluid)) (UniProt Q8IWL2); assay: latex bead agglutination (light microscopy); whole serum or BAL sample; streptavidin latex beads with biotinylated rabbit anti-goat antibody and goat anti-human SP-A antibody (N19); Hank solution, 6.5 mM Ca2+, 3 h at 4°C on a microscope slide; size of the biggest agglutinate in pixel
[2] = target: surfactant protein A (SP-A) in human serum (human (endogenous in serum)) (UniProt Q8IWL2); assay: as above

Row | size of the agglutinates [1] | size of the agglutinates [2] | Substance
1 | 1060 pixel |  | surfactant protein A (SP-A) in human broncho-alveolar lavage fluid (from UniProt Q8IWL2 21-248) (natural protein)
2 |  | 1360 pixel | surfactant protein A (SP-A) in human serum (from UniProt Q8IWL2 21-248) (natural protein)

Source: PMC2995781
